In the DeepSol protein solubility set:

Assay: soluble on expression in E. coli; label from the status in PepcDB or PDB records

Sequence	soluble on expression in E. coli
MSNAMPWVRFYLYDWISGTNGMTSEQRGVYITLLVCMYEKKEPLKTDFETLARVCHCSQKKFAAIVEYLMRNDKLIEIDGRLWNLDVEEELNNLSEELDNFTFNNNEEKEVKYVN	not soluble
MSNANQKITTFLMFEGKAEEAMNFYTSLFDQSEIVSISRYDENGPGKEGTVIHATFTLNGQEFMCIDSYVNHNFTFTPAMSLYVTCETEEEIDTVFHKLAQDGAILMPLGSYPFSKKFGWLNDKYGVSWQLTLAE	soluble
MSNFISPVYEIKSIPIEKISPNDYNPNSVAPPEMKLLYDSIKSDGYTMPIVCYYDKEEDRYSIVDGFHRYRIMLDYSDIYERESGRLPVSVIDKSLDYRMASTIRHNRARGSHD	not soluble
MSNFLDLQKQRRSIYALGKTVDLSKAELVALIQNAIKQAPSAFNSQTSRALVLFGQDSQDFWNKIAYSELEKVTPAEAFAGTKAKLESFAAGVGTILLFEDQAVVRNLEENFPLYAENFQPWSEQAHGIALYAIWLALAEQNIGMSVQHYNPLVDAQVAEKYDLPTNWKMRAQIPFGSIEAPAGEKEFMADQERFKVFGDLEHHHHHH	soluble
MSNLPFHQFCGTEGYVASRALQDVVNVAIALERPLLLKGEPGTGKTLLAYHIAKALGMEIILWNVKSTTKARDGLYTYDTVQRLNDARFGDGDVRDIRHYIKLGPLGRAFGSAERVVLLIDEVDKADIEFPNDLLFELDEMRFHVLETDEWVSAAHRPVVIVTSNSEKELPDAFLRRCVFHYIDFPDETQMRAIIDVHFPDLPAELMRSACKVFYGLREVPGLRKRPSTSELLDWIRVLLASGARLPEEETPALQSVPFLGALVKIQEDADILAHHASRSADVRTAGRRFFRLEHHHHHH	not soluble
MSNLVLYTLHLSPPCRAVELTAKALGLELEQKTINLLTGDHLKPEFVKLNPQHTIPVLDDNGTIITESHAIMIYLVTKYGKDDSLYPKDPVKQARVNSALHFESGVLFARMRFIFERILFFGKSDIPEDRVEYVQKSYELLEDTLVDDFVAGPTMTIADFSCISTISSIMGVVPLEQSKHPRIYAWIDRLKQLPYYEEANGGGGTDLGKFVLAKKEENAKA	soluble
MSNQYINEPITTGKVTLETTAGDIEIELWTKEAPLACRNFIQLCMENYYKGTVFHRLVKNFILQGGDPTATGTGGESIYGKPFKDEIHQRLKFNRRGIVGMANAGRDDNGSQFFFTIGDRGAPELDKKHTIFGKVTGPTLFNMLKITEVETEGDRPVTFYKITGARIDNNPFDDLKPREKRKKEKSERRKEPKVVETKKTNLLSFGDEVEEDEQELAVFNKV	not soluble
MSNSDEQILQFYVEHFEKALEKTQNVLLEFAESPLNHLKPTKRATDAQAFQFNSTCPGVENLNKLEREALFQQSSFVNLWLNLAYTCSKSSLSFWDSRDQGSEGGKLEVFMPRLHDSLTTEFHRIHLDPQEFATICAITTWKIHQWGTVEANTVAGQHYLAVIKELNNHHKKTTTMRDFERALRITEIISLLVPIGRMLQEVKTLYETLGIKDDGRE	not soluble
MSNTESTPVFDVCLSEKSFPHAQDKAILVHVFLSQTKDIDNLTEFQTLAESAGVELLSTLTTSRNAPHIKYFVGQGKAEEIAQAVENLGATVVLINHQLSPAQTRNLQNLCGCRIVDRSGLILDIFAQRARSHEGKLQVELAQLRHLSTRLVRRLGNQDQQKGGSVGLRGPGETQLETDRRLIKVRIQQLQNQLDKVNKKRHQNRKTRQKADIPTVSLVGYTNAGKSTLFNAITQAGVYAADQLFATLDPTLRRMQIQDVGTTILADTVGFIRFLPHDLVSAFKSTLQETTEANLLLHVVDIADERKNDNITAVNQVLDEIGALTLPSLLIYNKVDKITDITPHIERNQEGKPIAVYLSAHTNQGIDLLYQAIRECLRNELVCQKILLPTTAGQIYAQIRNQNCIKQEHFNQFGDRLIDIEVNAVQWQKWLKQYPALIEYVAFAKWENELEHHHHHH	not soluble
MSNTHEVRPGQSIELLKALHILTRDGKMNQDSRRKLKQVYHLYQFIEPLLQNARNARGAVTLVDHGAGKSYLGFILYDLFFKDRRDASHIYGIETRAELVQSATELAARLGFGGMSFLNLSVADSIASEQLPPRVDIVTALHACNTATDDAIRFALAKQAQSIVLVPCCQAEVAAVLRKNKARALADPMAELWRHPLHTREFGSQLTNVLRCLQLEAHGYQLSVTELVGWEHSMKNELIIARHQPGRPRREPARRLREMLERIGLQELSERFQVPAQP	not soluble
MSNTKTASTGFAELLKDRREQVKMDHAALASLLGETPETVAAWENGEGGELTLTQLGRIAHVLGTSIGALTPPAGNDLDDGVIIQMPDERPILKGVRDNVDYYVYNCLVRTKRAPSLVPLVVDVLTDNPDDAKFNSGHAGNEFLFVLEGEIHMKWGDKENPKEALLPTGASMFVEEHVPHAFTAAKGTGSAKLIAVNF	soluble
MSNTQKKNVPELRFPGFEGEWEEKKLGNLTTKIGSGKTPKGGSENYTNKGIPFLRSQNIRNGKLNLNDLVYISKDIDDEMKNSRTYYGDVLLNITGASIGRTAINSIVETHANLNQHVCIIRLKKEYYYNFFGQYLLSRKGKRKIFLAQSGGSREGLNFKEIANLKIFTPTIFEEQQKIGKFFSKLDRQIELEEQKLELLQQQKKGYMQKIFTQELRFKDENGEEYPEWENKFIKDIFIFENNRRKPITSSLREKGLYPYYGATGIIDYVKDYLFNNEERLLIGEDGAKWGQFETSSFIANGQYWVNNHAHVVKSNDHNLFFMNYYLNFKELRAFVTGNAPAKLTHANLCNINLKIPCLTEQDKVSALLKSIDNKMNNQMNRIELLKERKKGLLQKMFI	not soluble
MSNVPAELKYSKEHEWLRKEADGTYTVGITEHAQELLGDMVFVDLPEVGATVSAGDDCAVAESVKAASDIYAPVSGEIVAVNDALSDSPELVNSEPYTGGWIFKIKASDESELESLLDATAYEALLEDE	not soluble
MSNWKPNIPYNDLPPLPPKQDIESKTILKRCIAARASLARLKQAAELIPNQAMLINTLPVMEARASSEIENIVTTTDKLFQSLQMDTERQDPATKEALQYRTALFAGYESLTSRPLCTQTAIMVCNAIKHPYEMAIRKTGGTALKGGNSGNVVYTPPEGEETIRGKLANWERFIHESGDLDPLIIMAAAHYQFEAIHPFTDGNGRTGRILNSLLLIEKGLLDLPILYLSRYIIENRADYYRLLLGVTERQDWESWIIYILDGVADTADWTVSKIDAIRRLFEQTRQHIRTHAQGIYTHELVNLLFEQPYTRIANLEAAGIAKRQTASKYLKELSDIGVLQEIVIGRDKLFIHPRLMELLRGEGNSFTSFQSLVKA	not soluble
MSPGAWPRPRVVVSACLGFAAVRYSGELIPDKVVAALKEHVDFVPVCPEVEIGLGVPRPVVRLVRGEGGGPRMVQPKTGEDLTERMRAFSQRFLQGLGEVEGFLLKNRSPSCALKDAKRYAHAEGGGVVGKGPGLFAQAVEEAFPLLPKEDEGRLTNPRIRAHFFTRIFALARLRRVEDLPGLMAFHARYKLLLLAYNQKEARALGRLLAGAKGRPFPEVHGAYEEGFLRATERPWRLGAMADALLHAFGHFKKALAPREKAHFLDLLADFREERLPLEAPLALLASWARRFAEPYVEAQALLEPYPRALMHVPGA	soluble
MSPGPQSGGQERGSMERKMVELEDTGLTFATEVDLERLQALAAEWLQVIGEDPGREGLLKTPERVAKAWAFLTRGYRQRLEEVVGGAVFPAEGSEMVVVKGVEFYSMCEHHLLPFFGKVHIGYIPDGKILGLSKFARIVDMFARRLQVQERLAVQIAEAIQEVLEPQGVGVVVEGVHLCMMMRGVEKQHSRTVTSAMLGVFRENQKTREEFLSHLRDGTA	soluble
MSPIVSVPDITAPVENVPAILPKVVPGELIVNKPTGGDSDELFQYLVDILASPVYDVAIESPLELAEKLSDRLGVNFYIKREDKQRVFSFKLRGAYNMMSNLSREELDKGVITASAGNHAQGVALAGQRLNCVAKIVMPTTTPQIKIDAVRALGGDVVLYGKTFDEAQTHALELSEKDGLKYIPPFDDPGVIKGQGTIGTEINRQLKDIHAVFIPVGGGGLIAGVATFFKQIAPNTKIIGVEPYGAASMTLSLHEGHRVKLSNVDTFADGVAVALVGEYTFAKCQELIDGMVLVANDGISAAIKDVYDEGRNILETSGAVAIAGAAAYCEFYKIKNENIVAIASGANMDFSKLHKVTELAGLGSGK	soluble
MSPPDLEDEPFMENQDVAGENDLFVLDGRQDPPNLPQNHLEEVVGEIVENLERWHFAEILADGAEIHEDIIEDVGGDEVEEEEVDIDWVSPLSKEYSKPFSKS	not soluble
MSPPLAEERLTRIVQLLAERGTLRTAALTELLGVSSATIRRDLDVLAGRGLIRKLHGGAALAAPEPEAPLNQDQFYRDRQQVNHLGKQRLAGRALELIAPGQTLYLDAGTTALALAEALQRTPQLTRTLRVVTHGIDVAYVLNGECALYVVGGEVYGSTYSLTGPDALSTVSRYNYDLFFVSCTSIDPAGRLTNSNSVEAQQKASILRQSRRSVLIADQSKWGPPGFAPFAGFAEVSAWVTDRAPATARAAFEQAGVTVLEADASARELSADLEHHHHHH	soluble
MSPRCANLALKHYLLKPVQRIPQYRLLLTDYLKNLIEDAGDYRDTQDALAVVVEVANHANDTMKQGDNFQKLMQIQYSLNGHHEIVQPGRVFLKEGILMKLSRKVMQPRMFFLFNDALLYTTPVQSGMYKLNNMLSLAGMKVRKPTQEAYQNELKIESVERSFILSASSATERDEWLEAISRAIEEYAKKRITFCPSRSLDEADSENKEEVSPLGSKAPIWIPDTRATMCMICTSEFTLTWRRHHCRACGKIVCQACSSNKYGLDYLKNQPARVCEHCFQELQKLDHQHSPRIGSPGNHKSPSSALSSVLHSIPSGRKQKKIPAALKEVSANTEDSSMSGYLYRSKGNKKPWKHFWFVIKNKVLYTYAASEVRSEI	soluble
MSPTVRTARHDDYDDIVDLTSDVWADRAMADYIPDVFRDWVDDDGPNRKTLVVDVDGHAVGLAQAVILTETEAWFQGMRVDSDHRGKGFGSLLTEHLIEWAADAGASVGRSMVFSWNEAGLGQSLAAGFEAVTSFRWAHPDPADETPEMTVRNDPTNAWRYWQESDGRGVLSGLALDSGESWALSTLTRETLDRLAADQTVLTIGDDGPQGMACRVRTTDADGEQLAEYAVGVWSDVDAARALFTAIAADAATLGVDGTRVLIPETPRHVAQAAYASGNIDECPDFVLEIDGLEELS	not soluble
MSPVEAALETLAHTMGITVIETSKLGSTLNACFHPPTQTIFIKIGLDPVTRRCAIAHELGHAHYGHNCSTPGAERQADEWAAQQLLDVGDVEAVGLECEGSAAAMAAELGVTPHLLVLWMGMYERGRIQPEKRAC	not soluble
MSQFGATAIGIANIAMNGEVLDTWYPTPELVPASTSPSYSERLGAQDLPPKLLSLVRLDEDRLVEQVAVRTYIGDLDTPPIDAHDVFLRLHLLSHRLVRPLEINMDNAMSILSRVVWTNKGPCLPENFENIRMSLRNRGLIHVYGIDRLPRMVDYVVPTGVEITEAERVRLGAYLAEGTKVLREGYVSFNAGTLGAGRIEGRLYSGTVVGDNVDLGISASIVPDKPHAQLRVGANCVFGLGSAVMGINLGDNVRVGNNVVIDKETMVYFADRDITAAAAILDGQSDWQIHAESGRPEPVVRPT	soluble
MSQFISLTQYQLIEVQGADAEKYLQGQLTSDVVRLASGATTLTAHCDPKGKMNAIYRLFKVSSEQFFLLVKKDILPSGLDALKKYAVFSKVSFDLRDWQIIGVIGEKCGKITPNFSLEIDEKRSILLNETELPVNFNGDEKIWEVADIQAGLPNLSPQTQNEFIPQALNLQAIEQAISFTKGCYIGQETVARAKYRGANKRAMFIFKVQTQQEAEIGSEIEMQLEANWRKTGTITSAVNLDGVLWLQVVMNNDIDSEQQFRLLNSEILLERVQLPYSITELEHHHHHH	soluble
